Assay results as given in US20120114652A1 (AbbVie / Abbott, published 2012).

Legend:
rat PAI-1 = target: T1, rat PAI-1 (rat, UniProt P20961 24-402); test: IgG competition ELISA (DELFIA) against biotinylated human PAI-1, one-site binding analysis; column Rat
T1 construct: bought (US Biological)
T1 sequence: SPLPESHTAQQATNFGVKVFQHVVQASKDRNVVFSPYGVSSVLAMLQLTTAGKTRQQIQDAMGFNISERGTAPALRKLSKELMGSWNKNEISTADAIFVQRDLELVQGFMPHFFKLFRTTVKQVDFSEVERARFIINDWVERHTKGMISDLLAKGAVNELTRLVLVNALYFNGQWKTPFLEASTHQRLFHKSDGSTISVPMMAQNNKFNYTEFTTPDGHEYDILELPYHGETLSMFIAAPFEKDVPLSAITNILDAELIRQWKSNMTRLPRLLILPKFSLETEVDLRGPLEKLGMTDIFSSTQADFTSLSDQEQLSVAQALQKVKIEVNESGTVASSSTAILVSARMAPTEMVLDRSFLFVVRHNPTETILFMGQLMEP

PAI-3 = target: T2, PAI-3 (UniProt P05154 26-406, limits assumed); test: competition ELISA (DELFIA): PICK167_A01 IgG1 coated on the plate, biotinylated human PAI-1, titration of the unlabelled test antigen
T2 sequence (looked up): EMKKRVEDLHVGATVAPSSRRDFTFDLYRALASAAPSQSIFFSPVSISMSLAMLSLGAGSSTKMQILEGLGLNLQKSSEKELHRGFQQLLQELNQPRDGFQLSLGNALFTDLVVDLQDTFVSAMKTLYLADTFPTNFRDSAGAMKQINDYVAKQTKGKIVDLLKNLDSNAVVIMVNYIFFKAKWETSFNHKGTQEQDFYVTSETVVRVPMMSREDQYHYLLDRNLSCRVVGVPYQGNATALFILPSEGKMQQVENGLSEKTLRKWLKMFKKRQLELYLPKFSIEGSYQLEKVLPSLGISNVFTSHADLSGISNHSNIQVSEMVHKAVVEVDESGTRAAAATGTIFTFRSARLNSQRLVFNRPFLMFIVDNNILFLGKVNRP

antithrombin III = antithrombin III (UniProt P01008 33-464); test: as above
antithrombin III, sequence (P01008 33-464 limits assumed): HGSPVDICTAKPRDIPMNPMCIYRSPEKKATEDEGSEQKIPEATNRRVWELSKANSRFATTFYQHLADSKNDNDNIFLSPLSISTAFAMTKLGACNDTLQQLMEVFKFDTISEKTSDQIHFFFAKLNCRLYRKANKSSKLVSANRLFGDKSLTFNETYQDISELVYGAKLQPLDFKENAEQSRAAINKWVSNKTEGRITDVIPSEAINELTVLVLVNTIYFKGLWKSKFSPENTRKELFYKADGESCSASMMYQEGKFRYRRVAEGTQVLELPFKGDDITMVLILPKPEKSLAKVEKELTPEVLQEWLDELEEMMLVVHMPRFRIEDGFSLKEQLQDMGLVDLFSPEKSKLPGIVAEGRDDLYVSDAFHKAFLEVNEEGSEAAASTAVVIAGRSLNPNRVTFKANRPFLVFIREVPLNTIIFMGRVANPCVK

α2-antiplasmin = target: T3, α2-antiplasmin (UniProt P08697 40-491, limits assumed); test: as above
T3 sequence (looked up): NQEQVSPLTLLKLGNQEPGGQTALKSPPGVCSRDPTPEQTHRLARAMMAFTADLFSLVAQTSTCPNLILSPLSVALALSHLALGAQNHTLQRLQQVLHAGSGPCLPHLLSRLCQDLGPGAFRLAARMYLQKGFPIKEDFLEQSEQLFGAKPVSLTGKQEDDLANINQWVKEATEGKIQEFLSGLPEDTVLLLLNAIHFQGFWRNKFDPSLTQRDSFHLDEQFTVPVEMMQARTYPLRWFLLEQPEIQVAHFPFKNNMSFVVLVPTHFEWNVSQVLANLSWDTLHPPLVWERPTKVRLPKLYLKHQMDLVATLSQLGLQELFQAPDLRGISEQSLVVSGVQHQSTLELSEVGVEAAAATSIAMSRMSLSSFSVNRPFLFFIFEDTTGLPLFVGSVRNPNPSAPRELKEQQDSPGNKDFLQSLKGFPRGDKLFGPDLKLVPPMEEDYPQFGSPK

B1: PICK167_A01 IgG1 (antibody, V domains shown)
VH: QVQLQQSGAEVKKPGSSVKVSCKASGGTFSSYAISWVRQAPGQRLEWMGGIIPTFGTANYAQKFQGRVTITADESTSTAYMELSGLRSEDTAVYYCARERRQWLEGHFDYWGRGTPVTVSS
VL: DIQMTQSPSFLSASIGDRVTITCRASEGIYHNLAWYQQKPGKAPKLLIYKASSLASGAPSRFSGSRSGTDFTLTISSLQPDDFATYYCQQYSNYPLTFGGGTKLEIKR
fold difference in observed binding KD compared to human wild-type active (rat PAI-1): 9.7 fold | binding result (PAI-3): no binding (tested: log M about -6.3 (about 5e-7 M)) | binding result (antithrombin III): no binding (tested: log M about -6.3 (about 5e-7 M)) | binding result (α2-antiplasmin): no binding (tested: log M about -6.3 (about 5e-7 M))
